T1: mouse KLB (mouse, UniProt Q99N32 53-990)
T1 construct: expressed from KLB cDNA on HEK293T cells and read by FACS; also called msKLB
T1 sequence: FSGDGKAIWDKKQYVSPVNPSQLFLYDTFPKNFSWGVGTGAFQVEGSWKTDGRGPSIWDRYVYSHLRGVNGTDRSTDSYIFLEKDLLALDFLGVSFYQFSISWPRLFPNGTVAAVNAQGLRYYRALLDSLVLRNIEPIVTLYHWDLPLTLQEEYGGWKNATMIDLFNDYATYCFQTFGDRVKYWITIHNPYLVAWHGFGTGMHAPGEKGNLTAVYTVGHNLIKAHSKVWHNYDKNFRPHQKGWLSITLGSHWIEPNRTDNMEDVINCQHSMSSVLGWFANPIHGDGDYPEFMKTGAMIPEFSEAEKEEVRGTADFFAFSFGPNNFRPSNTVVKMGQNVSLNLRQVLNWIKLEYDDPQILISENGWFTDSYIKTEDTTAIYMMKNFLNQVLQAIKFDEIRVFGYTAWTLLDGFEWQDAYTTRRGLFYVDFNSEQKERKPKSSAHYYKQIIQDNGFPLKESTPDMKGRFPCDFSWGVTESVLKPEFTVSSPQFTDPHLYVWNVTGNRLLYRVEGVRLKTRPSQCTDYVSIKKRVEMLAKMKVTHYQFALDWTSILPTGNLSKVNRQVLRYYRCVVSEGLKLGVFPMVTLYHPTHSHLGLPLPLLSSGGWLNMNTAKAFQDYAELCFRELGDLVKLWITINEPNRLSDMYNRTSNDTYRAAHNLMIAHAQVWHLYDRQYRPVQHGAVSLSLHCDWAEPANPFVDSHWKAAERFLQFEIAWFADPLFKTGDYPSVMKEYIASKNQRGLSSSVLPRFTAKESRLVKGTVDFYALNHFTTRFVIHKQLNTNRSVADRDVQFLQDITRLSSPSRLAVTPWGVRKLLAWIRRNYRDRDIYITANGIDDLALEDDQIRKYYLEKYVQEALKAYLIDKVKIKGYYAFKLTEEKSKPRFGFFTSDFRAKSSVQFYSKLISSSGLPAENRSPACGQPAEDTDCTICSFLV

T2: rabbit KLB (+N-ter FLAG) (rabbit)
T2 construct: expressed from KLB cDNA on HEK293T cells and read by FACS
T2 chain: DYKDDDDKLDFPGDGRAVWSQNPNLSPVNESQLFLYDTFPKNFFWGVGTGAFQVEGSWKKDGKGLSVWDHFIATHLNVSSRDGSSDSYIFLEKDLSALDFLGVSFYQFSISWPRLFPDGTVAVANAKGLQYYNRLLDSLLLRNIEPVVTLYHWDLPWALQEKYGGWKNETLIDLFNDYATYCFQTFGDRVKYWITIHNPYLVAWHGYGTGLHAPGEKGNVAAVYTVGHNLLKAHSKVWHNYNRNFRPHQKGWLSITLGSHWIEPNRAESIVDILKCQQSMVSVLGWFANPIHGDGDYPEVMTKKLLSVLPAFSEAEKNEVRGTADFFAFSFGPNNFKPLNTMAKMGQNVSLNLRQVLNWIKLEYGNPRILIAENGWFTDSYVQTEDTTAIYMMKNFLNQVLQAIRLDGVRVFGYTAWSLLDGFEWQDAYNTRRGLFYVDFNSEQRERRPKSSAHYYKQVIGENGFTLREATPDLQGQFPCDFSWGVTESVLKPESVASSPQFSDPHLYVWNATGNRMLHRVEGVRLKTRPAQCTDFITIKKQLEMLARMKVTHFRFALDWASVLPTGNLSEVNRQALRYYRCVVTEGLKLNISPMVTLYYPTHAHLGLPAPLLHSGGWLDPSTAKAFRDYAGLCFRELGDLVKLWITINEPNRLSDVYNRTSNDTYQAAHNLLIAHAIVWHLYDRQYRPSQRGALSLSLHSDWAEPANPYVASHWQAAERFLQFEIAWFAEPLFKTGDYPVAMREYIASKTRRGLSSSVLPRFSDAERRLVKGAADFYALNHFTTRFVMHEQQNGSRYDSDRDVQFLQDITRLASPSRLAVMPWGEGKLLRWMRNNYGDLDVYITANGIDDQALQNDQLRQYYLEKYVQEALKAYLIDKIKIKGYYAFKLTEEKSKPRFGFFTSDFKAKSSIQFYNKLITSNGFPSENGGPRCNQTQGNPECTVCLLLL

T3: rhesus monkey KLB (+N-ter FLAG) (rhesus monkey, UniProt Q86Z14 53-992 (human entry))
T3 construct: expressed from KLB cDNA on HEK293T cells and read by FACS
T3 chain: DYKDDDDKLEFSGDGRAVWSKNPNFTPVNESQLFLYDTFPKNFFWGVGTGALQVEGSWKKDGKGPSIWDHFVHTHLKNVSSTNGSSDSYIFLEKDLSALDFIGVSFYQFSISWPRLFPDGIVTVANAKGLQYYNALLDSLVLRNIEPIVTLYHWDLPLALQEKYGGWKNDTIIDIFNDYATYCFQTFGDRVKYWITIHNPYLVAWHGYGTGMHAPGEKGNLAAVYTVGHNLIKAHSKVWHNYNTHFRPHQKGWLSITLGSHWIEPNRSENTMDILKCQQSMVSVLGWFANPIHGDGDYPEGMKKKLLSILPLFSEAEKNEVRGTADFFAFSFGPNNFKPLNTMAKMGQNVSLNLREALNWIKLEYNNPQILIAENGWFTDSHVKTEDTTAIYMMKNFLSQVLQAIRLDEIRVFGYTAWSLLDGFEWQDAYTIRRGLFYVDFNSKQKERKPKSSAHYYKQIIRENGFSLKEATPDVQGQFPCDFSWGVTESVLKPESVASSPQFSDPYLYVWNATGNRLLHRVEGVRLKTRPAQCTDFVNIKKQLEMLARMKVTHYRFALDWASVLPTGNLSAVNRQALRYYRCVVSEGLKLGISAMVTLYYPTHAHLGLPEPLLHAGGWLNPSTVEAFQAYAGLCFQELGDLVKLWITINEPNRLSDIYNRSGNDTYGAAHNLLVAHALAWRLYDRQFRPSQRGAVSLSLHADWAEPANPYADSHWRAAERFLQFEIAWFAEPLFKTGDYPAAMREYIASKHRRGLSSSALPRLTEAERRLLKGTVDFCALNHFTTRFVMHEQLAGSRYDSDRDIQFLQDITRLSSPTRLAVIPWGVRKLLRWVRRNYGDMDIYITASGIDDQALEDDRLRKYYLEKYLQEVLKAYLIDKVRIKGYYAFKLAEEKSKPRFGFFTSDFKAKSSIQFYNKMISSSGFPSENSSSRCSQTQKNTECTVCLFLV

B1: 11D4 (antibody, V domains shown)
VH: QVQVKESGPGLVAPSQSLSITCTVSGFSLTNYGVSWIRQPPGKGLEWLGVIWGDGSINYHSALISRLTITKDNSKSQVFLKLNSLEADDTATYYCAKTHDWFDYWGQGTLVTVSA
VL: DIQMTQTPSSLSASLGDRVTINCRASQDISNYFNWYQQKPNGTIKLLIYYTSRLQSGVPSRFSGSGSGTDYSLTISNLEQEDKATYFCHQVRTLPWTFGGGTKLEIK
notes: murine hybridoma-derived anti-KLB antibody; also called KLBmAb5
B2: 6C1 (antibody, V domains shown)
VH: QVQLQQSGDELMKPGASVKISCKVTGNTFSSYWIEWVKQRPGHGLEWIGEILPGSDSTKYVEKFKVKATFTADTSSNTAYMQLSSLTSEDSAVYYCARGGYHYPGWLVYWGQGTLVTVSA
VL: DIVMTQSQKFMSTSVGDRVSVTCKASQNVDSYVAWYQQKAGQSPKPLIYSASYRFSGVPDRFTGSGSGTEFTLTISNVQSEDLAEYFCQQYNISPYTFGGGTKLEIK
notes: murine hybridoma-derived anti-KLB antibody; also called KLBmAb4
B3: 11F1 (antibody, V domains shown)
VH: EVQLVESGGGLVKPGGSLKLSCAPSGFTFSSYGISWVRQTPEKRLEWVATVSSGGRYTYYPDSVKGRFTISRDNAENTLYLQMSSLRSEDTAMYYCTRGGDGYALDYWGQGTSVTVSS
VL: DIQMTQTTSSLSASLGDRVTIICSASQVISNYLNWYQQKPDGTVKLLIYFTSSLRSGVPSRFSGSGSGTDYSLTISNLEPEDVATYFCQQYSKLPWTFGGGTKLELK
notes: murine hybridoma-derived anti-KLB antibody
B4: 46C3 (antibody, V domains shown)
VH: EVQLQQSGAELVKPGASVKLSCTASDFNIIDTYIHWVKQRPEQGLEWIGRIDPANGNTKYDPKFQDKAALTSDTDSNTAYLLFNSLTSEDTAVYYCARGTSYSWFAYWGQGTLVSVSA
VL: AVLMTQTPLSLPVSLGDQASISCRSSQNIVHSDGNTYLEWYLQKPGQSPKLLIYKVSNRFSGVPDRFSGSGSGRDFTLKISRVEAGDLGVYYCFQGSHVLTFGAGTRLELK
notes: as for B3
B5: 14C10 (antibody, V domains shown)
VH: QVTLKESGPGILQPSQTLSLTCSFSGFSLSTSAMGIGWIRQPSGKGLEWLAHIWWDDDKRYNPALKSRLTISKDTSRNQVFLKIASVDTADTATYFCARIDGIYDGSFYAMDYWGQGTSVTVSS
VL: DIVLTQSPASLAVSLGQRATISCRASESVDSYGNSFMHWYQQKPGQPPKLLIYRASNLESGIPARFSGSGSRTDFTLTINPVEADDVANYYCQQSNEDYTFGGGTKLEIK
notes: murine hybridoma-derived anti-KLB antibody; also called KLBmAb3
B6: 14E6 (antibody, V domains shown)
VH: EVPLQQSGPELVKPGATVKISCKPSGDTFTEYTMNWVRQSHGKSLEWIGGINPNNGETSYNQKFKGKATLTVDKSSSTAFMDLRILTSEDSAVYFCARKTTNYWGQGTTLIVSS
VL: DIQMTQSPSSLSASLGERVSLTCRASQEISGYLSWLQQKPDGTIKRLIYAASTLDSGVPRRFSGSRSGSDYSLTISSLESEDFADYYCLQYGSYPWTFGGGTKLELK
notes: as for B3

target: T1, mouse KLB; assay: FACS on transfected HEK293T cells
Experimental: (§1) Species cross reactivity of the disclosed anti-KLB antibodies were analyzed by FACS analysis using KLB cDNA from mouse, rat, rabbit, cynomolgus monkey and rhesus monkey cloned into pRK mammalian expression vectors transiently transfected into HEK293T cells. The KLB extracellular domain polypeptide sequences that were expressed are as follows: […]

Does B1 bind?
Result: no binding

Does B2 bind?
Result: no binding

Does B3 bind?
Result: no binding

Does B4 bind?
Result: no binding

Does B5 bind?
Result: no binding

Does B6 bind?
Result: binds

Target: T2, rabbit KLB (+N-ter FLAG)
Assay: FACS on transfected HEK293T cells
Experimental: as §1

Does B1 bind?
Result: binds

Does B2 bind?
Result: binds

Does B3 bind?
Result: no binding

Does B4 bind?
Result: binds

Does B5 bind?
Result: binds

Does B6 bind?
Result: binds

Target: T3, rhesus monkey KLB (+N-ter FLAG)
Assay: FACS on transfected HEK293T cells
Experimental: as §1

Does B1 bind?
Result: binds

Does B2 bind?
Result: binds

Does B3 bind?
Result: binds

Does B4 bind?
Result: no binding

Does B5 bind?
Result: binds

Does B6 bind?
Result: binds
